Test results from article PMC2651776 (Nucleic Acids Research, 2009).

T1: MepR (Staphylococcus aureus, UniProt Q5Y812)
T1 sequence (Q5Y812 1-139): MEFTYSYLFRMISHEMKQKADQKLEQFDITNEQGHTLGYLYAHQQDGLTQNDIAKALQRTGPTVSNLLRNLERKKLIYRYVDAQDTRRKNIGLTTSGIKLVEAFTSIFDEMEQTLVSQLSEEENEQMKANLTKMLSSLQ

B1: mepA 44 bp full site (dsDNA)
DNA 1: TTATAGTTAGATATCTAATTGTTAGTAAGCTAATTATTGGAAAA
DNA 2: TTTTCCAATAATTAGCTTACTAACAATTAGATATCTAACTATAA
B2: mepR 26 bp site (dsDNA)
DNA 1: TATTTAGTTAGACATCTAACGAATGG
DNA 2: CCATTCGTTAGATGTCTAACTAAATA
B3: mepA 22 bp (3'-truncated) (dsDNA)
DNA 1: TTATAGTTAGATATCTAATTGT
DNA 2: ACAATTAGATATCTAACTATAA
B4: mepA 26 bp (3'-truncated) (dsDNA)
DNA 1: TTATAGTTAGATATCTAATTGTTAGT
DNA 2: ACTAACAATTAGATATCTAACTATAA
B5: MepR (natural protein, Staphylococcus aureus)
chain: T1 sequence (Q5Y812 1-139)

What was measured:
MepR [1] = biological target: T1, MepR; format: binding
MepR [2] = biological target: MepR (Staphylococcus aureus, UniProt A0A0H3JPT9 1-139); assay: fluorescence polarization
SEC = biological target: the molecule itself; assay: SEC

Row | Molecule | Kd (MepR [1]) [µM] | Kd (MepR [2]) [nM] | further results
1 | N=C(N)c1ccc(-c2cc3ccc(C(=N)N)cc3[nH]2)cc1 [DAPI, 4′,6-diamidino-2-phenylindole] | 4.5 |  | 
2 | CC[n+]1c(-c2ccccc2)c2cc(N)ccc2c2ccc(N)cc21 [ethidium] | 2.6 |  | 
3 | CC/N=c1\cc2oc3cc(NCC)c(C)cc3c(-c3ccccc3C(=O)OCC)c-2cc1C [rhodamine 6G] | 62.6 |  | 
4 | B1 |  | 6.3 | 
5 | B2 |  | 24.3 | 
6 | B3 |  | 46.4 | 
7 | B4 |  | 15.3 | 
8 | B5 |  |  | stoichiometry N (SEC): 2
